Measurements from US20250257142A1 (INVETX, published 2025).

T1: extracellular domain of canine IL-31RA fused to murine IgG2A Fc (canine)
T1 construct: also called Canine IL-31RA-murine IgG2A Fc; Canine IL-31RA-mFc
T1 chain: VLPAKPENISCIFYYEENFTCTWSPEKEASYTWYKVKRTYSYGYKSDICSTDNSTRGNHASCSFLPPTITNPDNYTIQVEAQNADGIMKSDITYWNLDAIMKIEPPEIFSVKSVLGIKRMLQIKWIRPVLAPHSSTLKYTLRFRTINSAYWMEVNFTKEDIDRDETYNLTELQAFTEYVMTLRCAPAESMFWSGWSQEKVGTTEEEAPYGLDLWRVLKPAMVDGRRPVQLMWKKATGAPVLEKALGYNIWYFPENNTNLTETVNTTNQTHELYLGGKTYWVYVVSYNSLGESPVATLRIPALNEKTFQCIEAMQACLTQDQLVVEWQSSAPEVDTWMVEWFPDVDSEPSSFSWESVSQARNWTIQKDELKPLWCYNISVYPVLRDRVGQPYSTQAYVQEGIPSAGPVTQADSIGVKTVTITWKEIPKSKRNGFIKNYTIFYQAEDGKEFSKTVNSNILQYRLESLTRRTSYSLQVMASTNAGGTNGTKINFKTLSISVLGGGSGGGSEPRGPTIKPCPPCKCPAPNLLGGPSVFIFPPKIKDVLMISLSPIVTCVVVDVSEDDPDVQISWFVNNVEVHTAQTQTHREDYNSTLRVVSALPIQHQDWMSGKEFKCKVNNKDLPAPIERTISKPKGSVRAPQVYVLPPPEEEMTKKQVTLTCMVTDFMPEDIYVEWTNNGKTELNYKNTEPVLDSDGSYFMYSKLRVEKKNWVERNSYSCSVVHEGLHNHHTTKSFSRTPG

T2: canine IL-31RA (20-308)-AviTag-His Tag, monomeric (canine)
T2 construct: Signal peptide (first 19 residues) left out; also called monomeric IL-31RA
T2 chain: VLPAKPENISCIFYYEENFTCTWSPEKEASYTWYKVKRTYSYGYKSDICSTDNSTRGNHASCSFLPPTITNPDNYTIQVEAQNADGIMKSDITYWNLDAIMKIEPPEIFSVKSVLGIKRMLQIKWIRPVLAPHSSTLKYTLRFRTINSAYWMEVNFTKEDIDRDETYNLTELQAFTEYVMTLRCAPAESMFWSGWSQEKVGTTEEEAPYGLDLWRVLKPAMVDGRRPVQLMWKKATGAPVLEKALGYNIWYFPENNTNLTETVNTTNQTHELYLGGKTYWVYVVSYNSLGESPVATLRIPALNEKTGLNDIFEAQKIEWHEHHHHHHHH


Assays:
[1] = target: canine IL-31 receptor alpha (IL-31RA) on canine DH-82 cells (canine); test: cell-based or functional assay
[2] = target: T1, extracellular domain of canine IL-31RA …; test: SPR Biacore T200, antibody captured on anti-human IgG chip, canine IL-31RA-mFc as analyte, 1:1 model
Procedure: Canine IL-31RA-murine IgG2A Fc was generated by transiently transfecting pcDNA3.4 containing Sequence 3 into GenScript HD (High Density) CHO-S cells and purified with MabSelect SuRe LX chromatography. Further purification of the recombinant protein was completed using gel filtration with TSKgel G3000SWxi chromatography. […] Antibodies were flowed over the anti-human IgG sensor chip at a concentration of 1 μg/ml in 1×HBS-EP+ (Cytiva, BR100826) for 60 seconds at a flow rate of 10 μL/min. Canine IL-31RA-mFc (100 nM, 50 nM, 25 nM, 12.5 nM, 6.25 nM, […]) solutions in 1×HBS-EP+ was flown over the sensor chips for a contact time of 120 s and a dissociation time of 600 s at a flow rate of 30 μL/min. Double reference-subtracted sensorgrams were fitted to a 1:1 binding model using Biacore T200 Evaluation software and the kinetics of binding are shown below in Table 4.

[3] = target: T2, canine IL-31RA (20-308)-AviTag-His Tag, …; test: SPR Biacore T200, antibody captured on anti-dog H+L chip, monomeric canine IL-31RA (20-308) as analyte
Procedure: (§1) The antibody was captured using a CM5 Series S chip amine coupled with an anti-dog H+L antibody (Jackson Immunoresearch). Canine IL-31RA-mFc (100 nM, 50 nM, 25 nM, 12.5 nM, 6.25 nM, 3.625 nM) solutions in 1×HBS-EP+ was flown over the sensor chip for a contact time of 120 s and a dissociation time of 600 s at a flow rate of […]. Double reference-subtracted sensorgrams were fitted to a 1:1 binding model using Biacore T200 Evaluation software. The canine IL-31RA antigen was both a dimer and aggregated so there were avidity effects with the measured affinities. […] Following the initial results with the single variants, a heavy chain containing the W53F variant and the M118I variant was synthesized and subcloned into pcDNA 3.4 (SEQ ID NO:18). The same methods as described above for expression and purification of the variant along with measuring the relative affinity were used to determine the relative affinity of the W53F/M118I heavy chain variant combined with the S95A light chain and the N94Q light chain variants.
To reduce the avidity effects from using the canine IL-31RA-mouse Fc construct in SPR experiments, a monomeric construct was generated which contains amino acids 20-308 of the canine IL-31IRA extracellular domain (SEQ ID NO:28). This construct has the AviTag sequence ([…] (SEQ ID NO:51)) followed by an 8×His(SEQ ID NO:52) tag to facilitate purification. GenScript HD (High Density) CHO-S cells were transiently transfected with pcDNA 3.4 containing Sequence 28 and purified with HisTrap FF chromatography. Further purification of the recombinant protein was completed using gel filtration with Cytiva HiLoad 26/600 Superdex chromatography to isolate the monomeric IL-31RA species. […] These clones were evaluated in an SPR experiment using the same conditions as described for the caninized clones except the analyte is canine IL-31RA (20-308).

[4] = target: T1, extracellular domain of canine IL-31RA …; test: SPR Biacore T200, antibody captured on anti-dog H+L chip, canine IL-31RA-mFc as analyte; relative affinity scale: *** 3 pM-100 pM, ** 101 pM-1 nM, * 1.1 nM-20 nM (avidity)
Procedure: as §1, with “Seven days following the transient transfection, the IgG in the conditioned medium was purified using MabSelect SuRe chromatography. The antibodies were buffer-exchanged into PBS, pH 7.4. The relative affinity of the variants was determined by SPR on a Biacore T200. The antibody” for “The antibody”

[5] = target: T1, extracellular domain of canine IL-31RA …; test: as above
Procedure: as §1, with “The different heavy and light chain combinations were co-transfected into ExpiCHO cells using the ExpiCHO transfection kit (ThermoFisher; Cat. #A29133). Seven days following the transient transfection, the IgG in the conditioned medium was purified using MabSelect SuRe chromatography. The antibodies were buffer-exchanged into PBS, pH 7.4. The relative affinity of the variants was determined by SPR on a Biacore T200. The antibody” for “The antibody”

| Binder | IC50 (read off the curve) [1] [nM] | Kd [2] [nM] | koff [2] [s⁻¹] | kon [2] [M⁻¹ s⁻¹] | Kd [3] [nM] | koff [3] [s⁻¹] | kon [3] [M⁻¹ s⁻¹] | binding result [4] | relative affinity (apparent KD by SPR) [5] [nM] |
| --- | --- | --- | --- | --- | --- | --- | --- | --- | --- |
| Clone 109 (human antibody 109, human IgG1) (antibody, V domains shown) VH: EVQLVESGGGVVRPGGSLRLSCAASGFTFDDYGMSWVRQIPGRGLEWVSGINWAGGTIGYADSVKGRFTVSRDDANNSLYLQMNSLRAEDTALYLCARESPLRLGDLGGDYFYYYYYMDVWGKGTTVTVSS VL: EIVLTQSPGTLSLSPGERATLSCRASQSVSSRYLVWYQQKPGQAPRLLIYGTSSRATGIPDRFSGSGSGTDFTLTISRLEPEDFAVYYCQQYDNSPRTFGQGTKVEIKR | ~4 | 0.506 | 0.000108 | 214000 | – | – | – | – | – |
| 186-95_QLF (186-95 containing the N56Q, M106L, and W94F variants) (antibody, V domains shown, Canine IgGB/kappa; signal peptides left out; also called N56Q-M106L / W94F) VH: EVQLVESGGDLVKPGGSLRLSCVASGFTFSSYAMSWVRQAPGKGLQWVSAISGSGQSTYYADAVKGRFTISRDNAKNTLYLQMNSLRAEDTAVYYCATQVVYYFKLDVWGQGTLVTVSS VL: EIVMTQSPGSLAGSAGESVSINCKSSQSVSSNLAWYQQKPGERPKLLIYGASTRASGVPARFSSSGSGTDFTLTINNLQAEDVGDYYCQQYYNFPPFTFGQGTKLEIKR | – | – | – | – | 2.31 | 0.000161 | 69800 | binds | – |
| 109-49_IA (109-49 containing the M118I and S95A variants) (antibody, V domains shown, Canine IgGB/kappa; signal peptides left out; also called M118I / S95A) VH: EVQLVESGGDLVKPGGSLRLSCVASGFTFDDYGMSWVRQAPGKGLQWVSGINWAGGTIGYADAVKGRFTISRDNARNTVYLQMNSLRAEDTAVYYCARESPLRLGDLGGDYFYYYYYIDVWGQGTLVTVSS VL: EVVMIQTPLSLSVSPGEPASISCRASQSVSSRYLVWYLQKPGQSPQLLIYGTSSRATGVSDRFSGSGSGTDFTLRISRVEAEDVGVYYCQQYDNAPRTFGQGTKVEIKR | – | – | – | – | 1.31 | 7.09e-05 | 54400 | – | 0.003 to 0.1 |
| Clone 186 (human antibody 186, human IgG1) (antibody, V domains shown) VH: EVQLLESGGGLIQPGGSLRLSCGASGFTFSSYAMSWVRQAPGKGLEWVSAISGSGNSTYYADSVKGRFTISRDNSKNTLYLQMNSLRAEDTAVYYCATQVVYYFKMDVWGKGTTVTVSS VL: EIVMTQSPATLSVSPGERATLSCRASQSVSSNLAWYRQKPGQAPRLLIYGASTRATGIPARFSGSGSGTEFTLTISSLQSEDFAVYYCQQYYNWPPFTFGPGTKLDIKR | ~10 | 1.81 | 0.000118 | 65200 | – | – | – | – | – |
